Test: soluble on expression in E. coli; label from the status in PepcDB or PDB records

Sequence	soluble on expression in E. coli
MHRKISCGINDIKSEFFEAERMNNSVTVEVTRGNLVESRHQGLAVVVDGDGGVLFSAGDIERGIFPRSACKAMQALPLVESGATDAYGFGNRELALACSSHSGEDAHAELAAAMLAKAGRDVDTLECGAHWSSDQKTIIHQARTLEKPTALHNNCSGKHSGFICACCHTGTDPKGYVGYDHPLQRQIRATMESLTGAALGHDNCGVDGCSIPTYAVPLKGLAHGFAKMATGRGLEAERAKASRRLIEACMAEPFYVAGTGRACTKLMQIAPGKIFAKTGAEGVFIAALPNQGIAMAVKCEDGTTRAAEAMVTALLARYFDDGSAEQQALKGMANRQMRNWNGIHVGDISVIGLAAALEHHHHHH	soluble
MSPAWPLRPGQKVRVEFYKYPEEALHYFWEAEVVEVRPEGVLTLLPQGGVFHHVGKGRSLVLDHDAYVAFFPGAWYSGGPDVREGRVLEYYWNVQTPALWTGEAFRQYDLELDVKCRADHTCEVFDREEFLAKRPLYPRAWVEEAERAVEAVFRHMREGRWPVLPPGKPLPWMERI	soluble
MATEGMILTNHDHQIRVGVLTVSDSCFRNLAEDRSGINLKDLVQDPSLLGGTISAYKIVPDEIEEIKETLIDWCDEKELNLILTTGGTGFAPRDVTPEATKEVIEREAPGMALAMLMGSLNVTPLGMLSRPVCGIRGKTLIINLPGSKKGSQECFQFILPALPHAIDLLRDAIVKVKEVHDRSHHHHHH	soluble
MGSDKIHHHHHHMMPNPLLDIRIGTMVRANLEDPAAYVRQILPLGFESIQPFFWQTLGGKDLPRLAGEIREAIGDADVVVSSLGVFGNPLESGEVDRGVLAAWETVIDNAHLFGASMVSGFTGRLRGKKLTDSLPRFREVWGPLAKRAADKGVRIAFENCAMDGNWAVGDWNIAHNPDAWELMFNELPDDNLGLEWEPCHQLVYLIDPIPQIRKWAPRIFHVHGKDATVRWDVIREHGVFGRLPFVQMRTPGFGDSDWTRVISELRLAGYKGAIDIEGWHDPVYRDDLEITGQARALEYLKQCRGGASYLQNPT	not soluble
MAPRDIRPGAEYGDIIEEAIVTCKVFLIVFSETSQISRWVRSELNIGFSSNKPIIPFRIDPTDLKGSMKLMLNDKHWLNAYPNPEEKFSELAAVILDLLQHPAVDTISPPGFQPASNVASADGSNAGAQGLFGKLLNQLFVKRRVKVTSDHAAEIFLNGERKGKLDAYETGNYSVSEDFYQLEVYSCEYGKKVKCEYSGSFSNSSTVIISVDMATAEKQYLMKAKNITSGQINDLGIIFLDEGKFEDAQECFLKAASMGEAAAAYNLGMMYHFGKGVEIDYDVAREYYEEAVKSDYPLALNNLGSIYYNGHGVRKDIAKSFPYFCRAAERGVESAQFTVATMLFYGQGVAVDKAKAKKWFQKAAAQGCKDSQNYLNSWVDD	not soluble
MATNIGMMDSAYFVGRNEILTWINDRLHLNLSRVEEAASGAVQCQMLDMTFPGVVPMHKLVDLKISTDLLEKERDFYFSKLRDVEILCQTPELDDLPVNVSVEPIVVAVKKILYATDANESALEDAQEYLNQSLGVEDDEAEGNGEQLEEEKTQA	soluble
MGSDKIHHHHHHMNTRILNALKQTTLIEEKQKASHCFVEDMPPYAINQELSLKEHGRVLSNYFFKNKDIYISRHNRYADYPTHTHTFLEMNYMLQGHATEIVDDKKITLNTGDLLLLDEGSTHSIKALGDNDLLINILFRTKNISINLLNDLRRSNNIFYDFLLSQVIEDSNHKRDYLVFTKKRNNEVQETLDRIIDEYYLKRDFSNSIIKSYLSILLVQLVREYPLNGPHQENKSSLLAIKVLKAIAEEYKTVSLEELANRYNYNKNYLSNIFKSEVGQTFSEVLTRQRLIQAHTLIASTSLPIATIMEQVGIKNKTFFYQKYKNYYKTLPSTDR	not soluble
MGSDKIHHHHHHMLSAKIEVYDSRFYQLVGTEARLEELFDKAIWAEGPVWLEKQQAVIFSDVKGNTMYRWTAEQGTQIFRQPSQFANGNAVDAAGNLITCEHGRRAISLTDHAGNIRVLVNKLEGKRLNSPNDVVVKSDGTIWFTDPPYGILSDAEGKKSPSEIIGCYVYCYDPITDDIHIATFNVMRPNGLAFCENETKLVVADMSVVEFKRTGLHHLVVFDVIDNQLYNRTSIAAISPGIPDGFCIDHNNVIYCSCETGLLVLLLDGTFLGRILLDKTASNCTFGLDQKTLFITATNSLYCLTFK	not soluble
MGSDKIHHHHHHMASESNQVIQRLFQRFFRDELAGLSPADRAAFESEFEGRYGELLDRSSSATTTSFADLVGFGDGPIKPFDSLQMPLLRNDFDESIIPPQLQASAELYYIYQMDRMKLFQVVDVLRRLFQNGQIRIQRGPGARGLYILEKWRPIRYKRRDRLIAYRRVFNYGRAPVPAGAIVNRSFHFQLVAFMNAMSQYFQDLTIGQVIRGSSTINDRPFAALATVQRVGTDLRYHLDRSSYGNILALTRETGQYVQQIFELFDAPDIKKSFDANTKWDVIEAVANRHLGGATEMSERAKMADAGRRILQYIAENDFRTTITPAEFDADAKKMGAQADAWLAAYRLTREGRRFPGLDGDRVHWSYGLNRNTASRIAA	not soluble
MASLLDKAKDFVADKLTAIPKPEGSVTDVDLKDVNRDSVEYLAKVSVTNPYSHSIPICEISFTFHSAGREIGKGKIPDPGSLKAKDMTALDIPVVVSYSILFNLARDVGVDWDIDYELQIGLTIDLPVVGEFTIPISSKGEIKLPTFKDFF	soluble
MSLTSEIIDVHMHCFVGRQQETALARDIALLRREGLRRMVVAGLVNTHPDPETTWNLIPDYVENHGDPHFNEADDLLALAESVDHALLPFVDTRYLRGDVATALDGYMGQGFKGVKGIYLPDNENDLGVGNVPDTLGISLEQYRRREWDLFAYAENHDLPLLYHMDARRYGDVMKDLLDDFPRVRVNFPHLGIGRKAFSAFLDRYPNIFTDIAGLLPYMRSNPASYRDFIMHYPDRICFGTDTFLYQAGSALDYISMVRELRLPEEIEAQVFNGNPTRFLGCVLYGAEGHHHHHH	not soluble
MSLNNPTPKIDQTNNIVIGQKINPDKMHRAKEFRRQMTPAEKILWQHLRGNRLNGLHFRRQQIIDGFIADFYCHAARLVIEVDGKIHELQAEYDAERDRVLLARGLRLLRVKNEEVVQEIDQVLMLISEVCCEETEGHHHHHH	soluble
WKTTLKLTLDNVVKLEKLKPLVEDFYREFEFAELQINMEVFNGSWEAIAQGRADIVVGATSAVPVGGDFEVKDMGVLDWAFVMSPAHPCVRQQVLTEEFVSQFPAICLDDTSNVLPKRHTGHYAKQRRLLLPNWYSAIECLKNGVGVGYMPRHIAMPLIHEGVLVEKLLQDDKPLSRCCLVWRKDDDHKLIQWMVDYLGSPNQLHQDWLQC	soluble
SWKRNKFRLTYVAEAPDLTQGLSNVHKKRVSAARLLSRQNLQSPKSSRSTIFVRLHTNGNQELQYQPGDHLGVFPGNHEDLVNALIERLEDAPPANHVVKVEMLEERNTALGVISNWKDESRLPPCTIFQAFKYYLDITTPPTPLQLQQFASLATNEKEKQRLLVLSKGLQEYEEWKWGKNPTMVEVLEEFPSIQMPATLLLTQLSLLQPRYYSISSSPDMYPDEVHLTVAIVSYHTRDGEGPVHHGVCSSWLNRIQADDVVPCFVRGAPSFHLPRNPQVPCILVGPGTGIAPFRSFWQQRQFDIQHKGMNPCPMVLVFGCRQSKIDHIYREETLQAKNKGVFRELYTAYSREPDRPKKYVQDVLQEQLAESVYRALKEQGGHIYVCGDVTMAADVLKAIQRIMTQQGKLSEEDAGVFISRLRDDNRYHEDIFGV	soluble
MMRISEKGITLIKEFEGCSLKAYPDPGTGGDPWTIGYGWTHSVDGKPVKPGMMIDEATAERLLKTGLVGYENDVSRLVKVKLTQGQFDALVSFAYNLGARTLSTSTLLRKLNAGDYAGAADEFLRWNKAGSKVLNGLTRRREAERALFLS	not soluble
MNILGIETSCDETSAAVLSDGSVRSNIVSSQRCHTDFGGVVPELASREHERLIVSIVDAAITEANIAKNDLDVIAATAGPGLIGAVMVGLCFAEGLAWALGKPFVPVNHVEAHIFSPFISDEPGHREPKGDFVSLTVSGGHTLLSVVRQDLGYEVIGRTIDDAAGEAFDKTGKMLGLGYPAGPVIDRLAREGDSDFHRFPRALTASSQTSKSYRGNFDFSFSGLKTSVRTWLEAHDSEYVQKHQADLAASIQSAIVEVLVEKSVAAALLHKVNAISVAGGVSANSGLRSAMQAACDRHGIELFIPALAYSTDNAAMIATMAQLMIARGKYRIEDNSYGVAPFARFEAARKGAR	not soluble
MGSDKIHHHHHHMLERRDKEITDLKRRVANMVVVGKISHVDHKNARYRVKTGNLVSDWIPDTQARAGKTRSYEGRDVGEQVVVVSSSGDLSQGVIVGSIHTDANQAADKGNLHKTLYPDGTTIEYDDEQNSYALHLTSGGKFSLTISDGVSIKGDGKKLELQAAEGIKIISQGDLSLSAEKNIALKAGGSVSLHSDDGIALHSSEGVSIHSSDLKHNGTNIGNSHVHGGVSPGGSMTGGPN	not soluble
MSLSSKRDIEANTDLNSITYIPTFPEPFERDNSHTTASFVSIQIRLLVASVTEENFLDTEHQIYYLLQRGSFSVYISYWKLLIQLFVNEFEAQQQKRDLNLPFRFDFSNLVHRLLYNLAQELITRTPDTIEKVKELALPLSGKYPIRPLFLSFLNKDNESDSAIIEALNPEVHPIFTTLKDLHRTNMSVSNITQNLFAVENKPNFLTMLSEFLKPLQGETLNDWIALILSEILAPGSQTSNQPSQPWIVQVPNVDVREVIEATEMGTKVNGIIKSLGTNNVNWNRVFNLMSTKFFLNKPVNATLSSLNYLFCILNSGPLVDQFFACDWSLYFKLRLSFLMYQWNYNSECLDLSSLPNIKKINKSIPLTKKSQLSLISVGKLNIELFLSRDEISKNPLFSSFHASFSEAYNNVPEYLAAVLISESKYFSLLVDNKSIIDELLISLVIKTYENNVIAFKELLKLVSKQKVIEVSRGIIASQNAQTINLVQALHDLGILDEVFEKLPIRDSLKLSPTAMHLGYLKFSEYIERNITLKTFVPTLDFIEAQTNIDELDEGHHHHHH	not soluble
MNETSHEASECPAAVITGGARRIGHSIAVRLHQQGFRVVVHYRHSEGAAQRLVAELNAARAGSAVLCKGDLSLSSSLLDCCEDIIDCSFRAFGRCDVLVNNASAYYPTPLLPGDDTNGAADAKPIDAQVAELFGSNAVAPLFLIRAFARRQGEGGAWRSRNLSVVNLCDAMTDLPLPGFCVYTMAKHALGGLTRAAALELAPRHIRVNAVAPGLSLLPPAMPQETQEEYRRKVPLGQSEASAAQIADAIAFLVSKDAGYITGTTLKVDGGLILARA	soluble
MAHHHHHHMRIHAPPYPFFNFLFLCFHTEPRRIPRRTVSYTQVVPASIFHGMADRALTCVRPAAYFLPGDRASSFLSSGAILLFEERVCTPHKASESTVCPVAGHSKVFAPSCYVEPFSIIEVALEERRNRVGRMSWCFRLFAIKLRGGNPTQFPPPASSVEHVQV	not soluble
MPDDKAVNGRRDFLRKTLTVIPAVTLAGYGVGHAMQTPAAEQDKPRERYQPRFFTNTEWAFVNAAVARLIPSDDNGPGAIEAGVPEFIDRQMETPYGHGALWYMQGPFVTDAAPEFGHQLKLVPRDIYRVGIAALERWSKANQGKPFAELEPSAQDDILQRLEAGQIDLQDLPAKLLFGQLLQNTHEGFFSDPQHGGNRGLVGWKLVGFPGARADFMDWADRGEKYPFPPVAISGERG	not soluble
